Experimental data: patent US20260152573A1 (ARGENX, published 2026)

Assays:
human serum albumin [1] = biological target: T1, human serum albumin (human, UniProt P02768 25-609); test: SPR Biacore 8K+ SCK, albumin on chip, pH 7.4
T1 construct: Immobilised on SPR chips; also added in solution in the FcRn occupancy assays; also called HSA; humanSA

human serum albumin [2] = biological target: T1, human serum albumin; test: SPR Biacore 8K+ SCK, albumin on chip, pH 7.4; remark: listed apart in the source
[3] = biological target: T2, cynomolgus monkey serum albumin (cynomolgus monkey, UniProt A2V9Z4 25-608); test: SPR Biacore 8K+ SCK, albumin on chip, pH 7.4
T2 construct: Immobilised on SPR chips; also called cynoSA; cynomolgus albumin

mouse serum albumin = biological target: T3, mouse serum albumin (mouse, UniProt P07724 25-608); test: SPR Biacore 8K+ SCK, albumin on chip, pH 7.4
T3 construct: Immobilised on SPR chips; also called mouseSA; MSA

human serum albumin [4] = biological target: T1, human serum albumin; test: SPR Biacore 8K+ SCK, albumin on chip, pH 5.5
human serum albumin [5] = biological target: T1, human serum albumin; test: SPR Biacore 8K+ SCK, albumin on chip, pH 7.4; remark: listed apart in the source
[6] = biological target: T2, cynomolgus monkey serum albumin; test: SPR Biacore 8K+ SCK, albumin on chip, pH 5.5
[7] = biological target: T2, cynomolgus monkey serum albumin; test: SPR Biacore 8K+ SCK, albumin on chip, pH 7.4; remark: listed apart in the source
human serum albumin [8] = biological target: T1, human serum albumin; test: SPR Biacore 8K+ SCK, albumin on chip, ratio of KD
[9] = biological target: T2, cynomolgus monkey serum albumin; test: SPR Biacore 8K+ SCK, albumin on chip, ratio of KD

B1: Alb23 G33A/S101A (VHH)
VHH: EVQLLESGGGLVQPGGSLRLSCAASGFTFRSFAMSWVRQAPGKGPEWVSSISGSGSDTLYADSVKGRFTISRDNSKNTLYLQMNSLRPEDTAVYYCTIGGALSRSSQGTLVTVSS
notes: VHH alone
With B1 the “fold decrease in affinity compared to the parental Alb23 VHH fragment” value (“fold decrease in affinity” for short) (human serum albumin [1]) was no less than 10 fold, the Kd (human serum albumin [2]) was 116 nM and the Kd [3] was 146 nM. It also gave a Kd (mouse serum albumin) of 118 nM, a Kd (human serum albumin [4]) of 55 nM and a koff (human serum albumin [4]) of 0.0672 s⁻¹. For the same binder, the kon (human serum albumin [4]) was 1.22e+06 M⁻¹ s⁻¹, the Kd (human serum albumin [5]) was 116 nM and the koff (human serum albumin [5]) was 0.133 s⁻¹. The kon (human serum albumin [5]) was 1.15e+06 M⁻¹ s⁻¹, the Kd [6] was 61.6 nM and the koff [6] was 0.0711 s⁻¹. It also gave a kon [6] of 1.15e+06 M⁻¹ s⁻¹, a Kd [7] of 146 nM and a koff [7] of 0.129 s⁻¹. For the same binder, the kon [7] was 881000 M⁻¹ s⁻¹, the “KD pH 5.5/pH 7.4” value (human serum albumin [8]) was 0.47 and the “KD pH 5.5/pH 7.4” value [9] was 0.42.

B2: Alb23 G99A (VHH)
VHH: EVQLLESGGGLVQPGGSLRLSCAASGFTFRSFGMSWVRQAPGKGPEWVSSISGSGSDTLYADSVKGRFTISRDNSKNTLYLQMNSLRPEDTAVYYCTIAGSLSRSSQGTLVTVSS
notes: VHH alone
In the case of B2, the “fold decrease in affinity” value (human serum albumin [1]) is reported as no less than 10 fold, the Kd (human serum albumin [2]) is reported as 100 nM and the Kd [3] is reported as 152 nM. For the same binder, the Kd (mouse serum albumin) was 73.1 nM, the Kd (human serum albumin [4]) was 42.5 nM and the koff (human serum albumin [4]) was 0.0473 s⁻¹. For the same binder, the kon (human serum albumin [4]) was 1.11e+06 M⁻¹ s⁻¹, the Kd (human serum albumin [5]) was 100 nM and the koff (human serum albumin [5]) was 0.0954 s⁻¹. For the same binder, the kon (human serum albumin [5]) was 955000 M⁻¹ s⁻¹, the Kd [6] was 47.2 nM and the koff [6] was 0.0495 s⁻¹. The kon [6] was 1.05e+06 M⁻¹ s⁻¹, the Kd [7] was 152 nM and the koff [7] was 0.0809 s⁻¹. The kon [7] was 533000 M⁻¹ s⁻¹, the “KD pH 5.5/pH 7.4” value (human serum albumin [8]) was 0.43 and the “KD pH 5.5/pH 7.4” value [9] was 0.31.

B3: Alb23 G100A (VHH)
VHH: EVQLLESGGGLVQPGGSLRLSCAASGFTFRSFGMSWVRQAPGKGPEWVSSISGSGSDTLYADSVKGRFTISRDNSKNTLYLQMNSLRPEDTAVYYCTIGASLSRSSQGTLVTVSS
notes: VHH alone
B3 was tested, and the “fold decrease in affinity” value (human serum albumin [1]) was no less than 10 fold, the Kd (human serum albumin [2]) was 30.6 nM and the Kd [3] was 37.9 nM. For the same binder, the Kd (mouse serum albumin) was 87.8 nM, the Kd (human serum albumin [4]) was 19.3 nM and the koff (human serum albumin [4]) was 0.0184 s⁻¹. For the same binder, the kon (human serum albumin [4]) was 950000 M⁻¹ s⁻¹, the Kd (human serum albumin [5]) was 30.6 nM and the koff (human serum albumin [5]) was 0.0232 s⁻¹. The kon (human serum albumin [5]) was 758000 M⁻¹ s⁻¹, the Kd [6] was 21.5 nM and the koff [6] was 0.0195 s⁻¹. It also gave a kon [6] of 905000 M⁻¹ s⁻¹, a Kd [7] of 37.9 nM and a koff [7] of 0.0266 s⁻¹. The kon [7] was 701000 M⁻¹ s⁻¹, the “KD pH 5.5/pH 7.4” value (human serum albumin [8]) was 0.63 and the “KD pH 5.5/pH 7.4” value [9] was 0.57.

B4: Alb23 L59A (VHH)
VHH: EVQLLESGGGLVQPGGSLRLSCAASGFTFRSFGMSWVRQAPGKGPEWVSSISGSGSDTAYADSVKGRFTISRDNSKNTLYLQMNSLRPEDTAVYYCTIGGSLSRSSQGTLVTVSS
notes: VHH alone
In the case of B4, the “fold decrease in affinity” value (human serum albumin [1]) is reported as no less than 10 fold, the Kd (human serum albumin [2]) is reported as 51 nM and the Kd [3] is reported as 55.6 nM. For the same binder, the Kd (mouse serum albumin) was 354 nM, the Kd (human serum albumin [4]) was 28.6 nM and the koff (human serum albumin [4]) was 0.0268 s⁻¹. The kon (human serum albumin [4]) was 935000 M⁻¹ s⁻¹, the Kd (human serum albumin [5]) was 51 nM and the koff (human serum albumin [5]) was 0.0451 s⁻¹. The kon (human serum albumin [5]) was 885000 M⁻¹ s⁻¹, the Kd [6] was 25.6 nM and the koff [6] was 0.0241 s⁻¹. It also gave a kon [6] of 940000 M⁻¹ s⁻¹, a Kd [7] of 55.6 nM and a koff [7] of 0.0444 s⁻¹. The kon [7] was 797000 M⁻¹ s⁻¹, the “KD pH 5.5/pH 7.4” value (human serum albumin [8]) was 0.56 and the “KD pH 5.5/pH 7.4” value [9] was 0.46.

B5: Alb23 M34A (VHH)
VHH: EVQLLESGGGLVQPGGSLRLSCAASGFTFRSFGASWVRQAPGKGPEWVSSISGSGSDTLYADSVKGRFTISRDNSKNTLYLQMNSLRPEDTAVYYCTIGGSLSRSSQGTLVTVSS
notes: VHH alone
For B5, the “fold decrease in affinity” value (human serum albumin [1]) was no less than 10 fold, the Kd (human serum albumin [2]) was 175 nM and the Kd [3] was 182 nM. For the same binder, the Kd (mouse serum albumin) was 149 nM, the Kd (human serum albumin [4]) was 73.8 nM and the koff (human serum albumin [4]) was 0.0837 s⁻¹. The kon (human serum albumin [4]) was 1.13e+06 M⁻¹ s⁻¹, the Kd (human serum albumin [5]) was 175 nM and the koff (human serum albumin [5]) was 0.226 s⁻¹. The kon (human serum albumin [5]) was 1.29e+06 M⁻¹ s⁻¹, the Kd [6] was 76 nM and the koff [6] was 0.0831 s⁻¹. The kon [6] was 1.09e+06 M⁻¹ s⁻¹, the Kd [7] was 182 nM and the koff [7] was 0.356 s⁻¹. The kon [7] was 1.95e+06 M⁻¹ s⁻¹, the “KD pH 5.5/pH 7.4” value (human serum albumin [8]) was 0.42 and the “KD pH 5.5/pH 7.4” value [9] was 0.42.
